Data taken from publication PMC8016914.

Target: T1, PsbS modified to contain a strep-tag at the C terminus (Arabidopsis thaliana), Q9XF91
T1 chain: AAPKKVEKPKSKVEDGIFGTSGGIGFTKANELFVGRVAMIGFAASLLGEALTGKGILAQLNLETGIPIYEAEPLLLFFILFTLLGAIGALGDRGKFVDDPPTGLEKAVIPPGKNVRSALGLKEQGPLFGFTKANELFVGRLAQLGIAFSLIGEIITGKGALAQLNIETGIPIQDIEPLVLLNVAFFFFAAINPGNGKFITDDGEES
Test: SDS-PAGE and immunoblot; PsbS in detergent and in LHCII + PsbS proteoliposomes (thylakoid lipids); monomeric (M) and dimeric (D) bands detected with an anti-PsbS antibody
Settings: remark: other sources report otherwise

B1: PsbS modified to contain a strep-tag at the C terminus, Q9XF91 60-265 (natural protein)
chain: AAPKKVEKPKSKVEDGIFGTSGGIGFTKANELFVGRVAMIGFAASLLGEALTGKGILAQLNLETGIPIYEAEPLLLFFILFTLLGAIGALGDRGKFVDDPPTGLEKAVIPPGKNVRSALGLKEQGPLFGFTKANELFVGRLAQLGIAFSLIGEIITGKGALAQLNIETGIPIQDIEPLVLLNVAFFFFAAINPGNGKFITDDGEES
A stoichiometry N of 2 was found for B1 in this work.
